Changes are numbered by the printed parent chain.
Assays:
[1] = molecular target: T1, recombinant His-tagged human IFNAR-1-ECD protein (human, UniProt P17181 28-436); assay: ELISA, coated His-tagged IFNAR-1
T1 construct: extracellular domain; the Biacore text says His-tagged human IFNAR-1-ECD; also called His-tagged IFNAR-1; hIFNAR-1 protein; not shown: His tag
T1 sequence (looked up): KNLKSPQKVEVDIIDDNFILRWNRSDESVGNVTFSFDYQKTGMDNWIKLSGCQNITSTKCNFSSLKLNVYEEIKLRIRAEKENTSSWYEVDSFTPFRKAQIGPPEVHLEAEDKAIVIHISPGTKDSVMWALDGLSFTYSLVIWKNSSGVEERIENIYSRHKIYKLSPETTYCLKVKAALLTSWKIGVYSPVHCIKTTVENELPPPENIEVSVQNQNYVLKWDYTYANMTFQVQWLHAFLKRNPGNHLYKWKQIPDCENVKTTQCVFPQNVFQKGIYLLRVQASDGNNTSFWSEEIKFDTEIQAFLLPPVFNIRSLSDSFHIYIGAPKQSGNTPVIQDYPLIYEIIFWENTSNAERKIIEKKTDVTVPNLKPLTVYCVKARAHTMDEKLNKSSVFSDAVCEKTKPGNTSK
Description: This example tested the binding properties of the anti-IFNAR-1 mouse antibodies to the human IFNAR-1 proteins by ELISA assay. In short, His-tagged IFNAR-1 was coated at 0.5 μg/ml overnight and then blocked by 5% BSA in PBS. Serial diluted anti-IFNAR-1 antibodies were incubated with the coated antigen for 1 h at room temperature. The resulting plates were washed with PBS/T and incubated with goat anti-mouse IgG-HRP for 1 h at room temperature. The plates were developed with TMB substrate and analyzed by spectrophotometer at OD 450-630 nm.

human IFNAR-1 on cells [2] = molecular target: T2, human IFNAR-1 on cells (human, UniProt P17181 28-557); assay: cell-based or functional assay
T2 sequence (looked up): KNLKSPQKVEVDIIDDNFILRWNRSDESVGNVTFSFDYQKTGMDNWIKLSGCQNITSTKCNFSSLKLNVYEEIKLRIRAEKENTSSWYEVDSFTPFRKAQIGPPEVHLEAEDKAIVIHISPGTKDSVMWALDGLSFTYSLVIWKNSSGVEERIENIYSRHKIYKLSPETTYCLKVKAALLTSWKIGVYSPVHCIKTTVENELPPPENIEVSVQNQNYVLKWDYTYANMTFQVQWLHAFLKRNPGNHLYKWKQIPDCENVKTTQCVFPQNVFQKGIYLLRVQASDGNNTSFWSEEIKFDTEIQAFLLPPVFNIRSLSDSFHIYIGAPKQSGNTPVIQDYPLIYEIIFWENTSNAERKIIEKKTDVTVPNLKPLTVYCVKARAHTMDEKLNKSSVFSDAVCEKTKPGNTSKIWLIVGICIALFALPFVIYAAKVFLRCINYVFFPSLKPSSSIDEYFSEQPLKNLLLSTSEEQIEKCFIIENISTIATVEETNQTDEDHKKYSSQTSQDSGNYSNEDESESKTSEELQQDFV

[3] = molecular target: T3, human IFNAR-1 protein (form not stated) (human, UniProt P17181 28-436, limits assumed); assay: affinity measurement of purified IgG at different concentrations (method not named)
T3 construct: bispecific ELISA
T3 sequence (looked up): T1 sequence (looked up)

[4] = molecular target: T3, human IFNAR-1 protein (form not stated); assay: affinity ranking of expressed humanized 485G10 IgGs (method not named)
[5] = molecular target: T3, human IFNAR-1 protein (form not stated); assay: affinity ranking of expressed humanized 8G11 IgGs (method not named)
[6] = molecular target: T3, human IFNAR-1 protein (form not stated); assay: affinity measurement of purified IgG at different concentrations (method not named); remark: listed apart in the source
[7] = molecular target: T1, recombinant His-tagged human …; assay: SPR (Biacore T200), antibody captured, His-tagged IFNAR-1-ECD as analyte
Description: The binding of the antibodies to recombinant His-tagged human IFNAR-1-ECD protein was examined by Biacore T200 using a capture method. The anti-IFNAR-1 antibodies were captured using anti-human Fc antibody or Protein A which were coated on chip. The serial concentrations of his-tagged human IFNAR-1-ECD protein (0-8 nM) were injected over capture antibodies at the flow rate of 30 μl/min. The dissociation phases were 600 s or 1200 s.

human IFNAR-1 on cells [8] = molecular target: T2, human IFNAR-1 on cells; assay: cell-based or functional assay; remark: listed apart in the source

B1: 107E12 (antibody, V domains shown)
VH: EVQLQQSGAEFVKPGASVKLSCTASGFNIKDYYIHWVTQKTEQGLEWIGRIDPEDGETKYAPKFQDKATITADSSSNTAYLQLSSLTSVDTAVYFCSREGSFTGWFPYWGQGTLVSVSA
VL: DIVMTQSQKFMSTSVGDRVSVTCKARQSVGTYVAWYQQKPGQSPKALIYSTSYRYNGVPDRFTGSGSGTDFTLTISNVQSEDLADYFCQQYHSYPYTFGGGTKLEIK
notes: Hybridoma-derived monoclonal antibody
EC50 [1]: 0.075 nM | EC50 (nM), inhibition of IFNα2b-induced SEAP reporter in HEK-Blue IFNα/β cells (human IFNAR-1 on cells [2]): 1.21 nM

B2: 106A7 (antibody, V domains shown)
VH: EVQLQQSGADLVKPGASVKLSCTTSGFNIKDYYMHWVNQRTEQGLEWIGRIDPEDGETKYAPKFQGKATITADTSSNTAYLQLSSLTSEDTAVYYCARDWGHSFDYWGQGTTLTVSS
VL: DIVMTQSQKFMSTSVGDRVSVTCKASQNVGTTVAWYQQKPGQSPKTLIYSASYRYSGVPDRFTGSGSGTDFTLTISNVQSEDLAEYFCQQYNSYTFGGGTKLEMK
notes: as for B1
EC50 [1]: 0.099 nM | EC50 (nM), inhibition of IFNα2b-induced SEAP reporter in HEK-Blue IFNα/β cells (human IFNAR-1 on cells [2]): 3.52 nM

B3: 485G10-H1L3 (antibody, V domains shown)
VH: QVQLVQSGAEVKKPGASVKVSCKASGFNIKDYYIHWVRQAPGQGLEWMGRIDPEDAETKYAPKFQGRVTMTADTSISTAYMELSRLRSDDTVVYYCARYHGYWALDYWGQGTLVTVSS
VL: DIQMTQSPSSLSTSVGDRVTITCKTSQNVGTNVAWYQQKPGKAPKPLIYSTSYRYSGVPSRFSGSGSGTDFTLTISSVQPEDFATYYCHQYFSYPYTFGPGTKLDIK
notes: Humanized IgG expressed in HEK293; also called VH1 + VL3 (485G10)
Kd [3]: 1.24 nM | koff [3]: 0.000232 s⁻¹ | kon [3]: 187000 M⁻¹ s⁻¹ | Kd [4]: 0.325 nM | koff [4]: 0.000101 s⁻¹ | kon [4]: 311000 M⁻¹ s⁻¹

B4: 485G10-H1L2 (antibody, V domains shown)
VH: B3 VH
VL: B3 VL with V78L, L104V
notes: Humanized IgG expressed in HEK293; also called VH1 + VL2 (485G10)
Kd [3]: 1.55 nM | koff [3]: 0.000321 s⁻¹ | kon [3]: 207000 M⁻¹ s⁻¹ | Kd [4]: 0.652 nM | koff [4]: 0.000201 s⁻¹ | kon [4]: 308000 M⁻¹ s⁻¹

B5: 485G10-H1L4 (antibody, V domains shown)
VH: B3 VH
VL: B3 VL with I21V
notes: Humanized IgG expressed in HEK293; also called VH1 + VL4 (485G10)
Kd [3]: 1.32 nM | koff [3]: 0.000259 s⁻¹ | kon [3]: 196000 M⁻¹ s⁻¹ | Kd [4]: 0.66 nM | koff [4]: 0.000216 s⁻¹ | kon [4]: 327000 M⁻¹ s⁻¹

B6: 485G10-H2L3 (antibody, V domains shown)
VH: B3 VH with V20L, R38K, M48I, A97G
VL: B3 VL
notes: Humanized IgG expressed in HEK293; also called VH2 + VL3 (485G10)
Kd [3]: 1.96 nM | koff [3]: 0.000366 s⁻¹ | kon [3]: 186000 M⁻¹ s⁻¹ | Kd [4]: 0.848 nM | koff [4]: 0.000238 s⁻¹ | kon [4]: 281000 M⁻¹ s⁻¹

B7: 8G11-H2L1 (antibody, V domains shown)
VH: QVQLVQSGAEVVKPGASVKVSCKGSGFNIKDYYMHWVRQAPGQGLEWIGRIDPEDAETKYAPKFQGRVTMTADTSTSTVYMELSSLRSEDTAVYYCARGGNFYVMDYWGQGTLVTVSS
VL: DIQLTQSPSFLSASVGDRVTITCKASQNVGTNVVWYQQKPGKAPKLLIYSASYRVSGVPSRFSGSGSGTEFTLTISSLQPEDFATYYCQQKNNYPYTFGQGTKLEIK
notes: Humanized IgG expressed in HEK293; also called VH2 + VL1 (8G11)
Kd [5]: 0.439 nM | koff [5]: 8.84e-05 s⁻¹ | kon [5]: 202000 M⁻¹ s⁻¹ | Kd [6]: 0.403 nM | koff [6]: 9.24e-05 s⁻¹ | kon [6]: 229000 M⁻¹ s⁻¹

B8: 8G11-H1L1 (antibody, V domains shown)
VH: B7 VH with V12K, G24A, I48M, A72R
VL: B7 VL
notes: Humanized IgG expressed in HEK293; also called VH1 + VL1 (8G11)
Kd [5]: 0.662 nM | koff [5]: 9.83e-05 s⁻¹ | kon [5]: 148000 M⁻¹ s⁻¹ | Kd [6]: 1.36 nM | koff [6]: 0.000219 s⁻¹ | kon [6]: 161000 M⁻¹ s⁻¹

B9: 8G11-H2L2 (antibody, V domains shown)
VH: B7 VH
VL: B7 VL with A13T, A43S, L46V, T74I
notes: Humanized IgG expressed in HEK293; also called VH2 + VL2 (8G11)
Kd [5]: 0.328 nM | koff [5]: 9.42e-05 s⁻¹ | kon [5]: 287000 M⁻¹ s⁻¹ | Kd [6]: 0.419 nM | koff [6]: 0.000125 s⁻¹ | kon [6]: 298000 M⁻¹ s⁻¹

B10: 8G11-H4L3 (antibody, V domains shown)
VH: B7 VH with V20L, R38K, V68A, M70I, V79A, M81L
VL: B7 VL with A13T, A43S, L46V, T74I, L78V, Y87F
notes: Humanized IgG expressed in HEK293; also called VH4 + VL3 (8G11)
Kd [5]: 0.284 nM | koff [5]: 8.52e-05 s⁻¹ | kon [5]: 301000 M⁻¹ s⁻¹ | Kd [6]: 0.22 nM | koff [6]: 7.47e-05 s⁻¹ | kon [6]: 340000 M⁻¹ s⁻¹

B11: 4D8 (antibody, V domains shown)
VH: EVRLQQSGAELVQPGASVKLSCTGFGFNIKDYYMHWVKQRTEQGLEWIGRIDPEDAETKYAPKFQGQATITADTSSNTAYVQVSSLSSEDTAVYYCARGGNFYVMDYWGQGTSVTVSS
VL: DIVMTQSQKFMSTSVGDRVSVTCKASQNVGTNVVWYQQKPGQSPKVLIYSASYRYSGVPDRFTGSGSGTDFTLIISNVQSEDLAEYFCQQKNSYPYTFGGGTKLEIK
notes: Hybridoma-derived monoclonal antibody; Chimeric human IgG1 Fc versions were also made
EC50 [1]: 0.067 nM | Kd [7]: 0.039 nM | koff [7]: 9.03e-05 s⁻¹ | kon [7]: 2.31e+06 M⁻¹ s⁻¹ | EC50 (nM), inhibition of IFNα2b-induced SEAP reporter in HEK-Blue IFNα/β cells (human IFNAR-1 on cells [2]): 0.46 nM

B12: 34H8 (antibody, V domains shown)
VH: EVQLLQSGAELVKPGASVRLSCTASGFNIKDYYLHWVKQRTEQGLEWIGRIDPEDGETKYAPKFQGKATITTDTSSNTAYLQLSSLTSEDTAVYYCTRGGNYDVMDYWGQGTSVTVSS
VL: B11 VL with N32Y, V46A, I74T, S76G, S93T, Y96F, K107E
notes: as for B1
EC50 [1]: 0.064 nM | Kd [7]: 0.0186 nM | koff [7]: 4.41e-05 s⁻¹ | kon [7]: 2.37e+06 M⁻¹ s⁻¹ | EC50 (nM), inhibition of IFNα2b-induced SEAP reporter in HEK-Blue IFNα/β cells (human IFNAR-1 on cells [2]): 0.56 nM

B13: 485G10 chimeric antibody (antibody, V domains shown)
VH: EVQLQQSGAELVKPGASVKLSCTGSGFNIKDYYIHWVKQRTEQGLEWIGRIDPEDGETKYAPKFQGKATITADTSSNTAYLQLSSLTSEDTVVYYCGRYHGYWALDYWGQGTSVTVSS
VL: B11 VL with A25T, V34A, V46P, A51T, Q89H, K91Y, N92F, K103L
EC50 (nM), IFNα2b-mediated anti-viral assay (Huh7-Con1b HCV replicon luciferase) (human IFNAR-1 on cells [8]): 16.3 nM

B14: 8G11 (antibody, V domains shown)
VH: B11 VH with R3Q, Q13K, T41A, A56G, Q67K, V81L, S87T
VL: B11 VL with Y55V, S93N
notes: Hybridoma-derived monoclonal antibody; also called mouse antibody 8G11
EC50 [1]: 0.069 nM | Kd [7]: 0.0271 nM | koff [7]: 6.4e-05 s⁻¹ | kon [7]: 2.36e+06 M⁻¹ s⁻¹ | EC50 (nM), inhibition of IFNα2b-induced SEAP reporter in HEK-Blue IFNα/β cells (human IFNAR-1 on cells [2]): 0.465 nM
